In publication PMC9456320:

biological target: C-terminally mKGC-tagged ORF30 (ORF30-mKGC); assay: BiFC assay, flow cytometry; settings: 293T cells; co-transfected with mCherry transfection control; three independent samples; ASC10mut protein expression was not confirmed by Western blotting; parent: 99.8

| Substance | response |
| --- | --- |
| N-terminally mKGN-tagged ORF18 (mKGN-ORF18) WT P156A; R158A; L159A | 14.4% |

same assay, conditions: 293T cells; co-transfected with mCherry transfection control; three independent samples; parent: 99.8

| Substance | response |
| --- | --- |
| N-terminally mKGN-tagged ORF18 (mKGN-ORF18) WT C166A; L167A; W170A; G171A | 14.2% |
| N-terminally mKGN-tagged ORF18 (mKGN-ORF18) WT E36A; L37A; R38A | 9.76% |
| N-terminally mKGN-tagged ORF18 (mKGN-ORF18) WT E176A; V179A; R180A | 75.3% |
| N-terminally mKGN-tagged ORF18 (mKGN-ORF18) WT F187A; L191A | 32.7% |
| N-terminally mKGN-tagged ORF18 (mKGN-ORF18) WT G3A | 99.8% |
| N-terminally mKGN-tagged ORF18 (mKGN-ORF18) WT G195A; L197A | 87.5% |
| N-terminally mKGN-tagged ORF18 (mKGN-ORF18) WT H41A; L44A | 16.2% |
| N-terminally mKGN-tagged ORF18 (mKGN-ORF18) WT L24A; L29A | 16.7% |
| N-terminally mKGN-tagged ORF18 (mKGN-ORF18) WT L142A; D144A; G145A; N146A | 81.3% |
| N-terminally mKGN-tagged ORF18 (mKGN-ORF18) WT L151A; G152A; S153A | 72.6% |
| N-terminally mKGN-tagged ORF18 (mKGN-ORF18) WT N53A; Y55A; L56A | 39.9% |
| N-terminally mKGN-tagged ORF18 (mKGN-ORF18) WT P14A; G15A; L19A | 14.1% |

same assay, conditions: 293T cells; co-transfected with mCherry transfection control; three independent samples; parent: 99.9

| Substance | response |
| --- | --- |
| N-terminally mKGN-tagged ORF18 (mKGN-ORF18) WT C166A | 99.6% |
| N-terminally mKGN-tagged ORF18 (mKGN-ORF18) WT E36A | 55.9% |
| N-terminally mKGN-tagged ORF18 (mKGN-ORF18) WT G15A | 99.6% |
| N-terminally mKGN-tagged ORF18 (mKGN-ORF18) WT G171A | 98.6% |
| N-terminally mKGN-tagged ORF18 (mKGN-ORF18) WT H41A | 47.4% |
| N-terminally mKGN-tagged ORF18 (mKGN-ORF18) WT L19A | 99.1% |
| N-terminally mKGN-tagged ORF18 (mKGN-ORF18) WT L24A | 93.4% |
| N-terminally mKGN-tagged ORF18 (mKGN-ORF18) WT L29A | 58.8% |
| N-terminally mKGN-tagged ORF18 (mKGN-ORF18) WT L37A | 98.7% |
| N-terminally mKGN-tagged ORF18 (mKGN-ORF18) WT L44A | 94.7% |
| N-terminally mKGN-tagged ORF18 (mKGN-ORF18) WT L159A | 99.9% |
| N-terminally mKGN-tagged ORF18 (mKGN-ORF18) WT L167A | 96.6% |
| N-terminally mKGN-tagged ORF18 (mKGN-ORF18) WT P14A | 99.9% |
| N-terminally mKGN-tagged ORF18 (mKGN-ORF18) WT P156A | 99.8% |
| N-terminally mKGN-tagged ORF18 (mKGN-ORF18) WT R158A | 87.3% |
| N-terminally mKGN-tagged ORF18 (mKGN-ORF18) WT W170A | 25.6% |

biological target: C-terminally mKGC-tagged ORF30 (ORF30-mKGC) (Kaposi's sarcoma-associated herpesvirus (KSHV; BAC16, strain JSC-1)); assay: split reporter (BiFC, NanoBiT); split mKusabira-Green (mKGN/mKGC) BiFC in 293T cells, co-transfected by the calcium phosphate method, all combinations of tag type and location; cells fixed two days after transfection, gated by FSC/SSC, ratio of mKG-positive cells by flow cytometry; settings: not given

| Substance | mKG-positive cells (%) |
| --- | --- |
| N-terminally mKGN-tagged ORF18 (mKGN-ORF18) WT (natural protein) | 70% |

biological target: p50-mKGC (pCONT-2) (UniProt P19838); assay: split reporter (BiFC, NanoBiT); split mKusabira-Green BiFC in 293T cells, lipofection of mKGN-ORF18 alanine-scanning mutants with ORF30-mKGC and mCherry as transfection control; mCherry-positive cells gated, % mKG-positive cells by flow cytometry; block mutants under 20% and single mutants under 60% counted as binding-negative; settings: not given
UniProt P19838, sequence (P19838 1-433): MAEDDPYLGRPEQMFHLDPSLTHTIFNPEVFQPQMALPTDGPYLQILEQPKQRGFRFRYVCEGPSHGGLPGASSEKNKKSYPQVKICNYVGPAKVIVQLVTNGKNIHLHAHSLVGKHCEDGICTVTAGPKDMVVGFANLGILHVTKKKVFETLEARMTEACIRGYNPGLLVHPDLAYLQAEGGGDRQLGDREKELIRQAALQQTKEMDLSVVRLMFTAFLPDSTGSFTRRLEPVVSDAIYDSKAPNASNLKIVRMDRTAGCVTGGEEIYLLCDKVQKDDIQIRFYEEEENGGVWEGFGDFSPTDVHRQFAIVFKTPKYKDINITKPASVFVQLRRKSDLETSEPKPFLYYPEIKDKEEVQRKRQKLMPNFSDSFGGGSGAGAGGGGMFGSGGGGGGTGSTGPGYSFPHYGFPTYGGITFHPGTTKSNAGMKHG

| mKG-positive cells (%) | Substance |
| --- | --- |
| > 90% | p65-mKGN (pCONT-1) (from UniProt Q04206 1-551) (natural protein) |
